The target of the assay is human Claudin 18.2 (human) (UniProt P56856). Nature of the assay: flow cytometry, antibody dilution series on hCLDN18.2-expressing MiaPaCa-2 cells.

These results are taken from US20250002576A1.

B1: YU577-E08 (antibody, V domains shown)
VH: QVQLVQSGAEVKKPGASVKVSCKASGYTFTSYYMHWVRQAPGQGLEWMGIINPSGGSTSYAQKFQGRVTMTRDTSTSTVYMELSSLRSEDTAVYYCATRQFDYWGQGTLVTVSS
VL: QSVLTQPPSVSAAPGQKVTISCSGSSSNIGNNYVSWYQQLPGTAPKLLIYENNKRPSGIPDRFSGSKSGTSATLGITGLQTGDEADYYCGTWDSSLSAAVFGGGTKVTVL
For B1, the EC50 was found to be 7.2 nM.

For orientation: EC50 means the concentration needed to bring the measured effect to its halfway point. Read a high EC50 as weaker potency.
